For data set [1], the target named is T1, RNase T E92G (Escherichia coli, UniProt P30014 1-215, E92G).
T1 sequence: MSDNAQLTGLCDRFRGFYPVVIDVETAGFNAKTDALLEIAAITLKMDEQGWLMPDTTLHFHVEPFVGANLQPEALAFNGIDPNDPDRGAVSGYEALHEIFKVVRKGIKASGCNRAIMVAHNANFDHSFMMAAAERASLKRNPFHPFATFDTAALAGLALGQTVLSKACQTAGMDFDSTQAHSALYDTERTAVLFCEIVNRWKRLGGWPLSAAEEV
The experiment in a line: X-ray crystallography.

Data set [2] concerns the target T1, RNase T E92G. The experiment in a line: X-ray crystallography. The source holds these as a separate data set.
The target of data set [3] is T2, RNase T (Escherichia coli, UniProt P30014 1-215).
T2 sequence: T1 sequence with G92E
Nature of the data set: X-ray crystallography.

For data set [4], the target named is T2, RNase T. Nature of the data set: X-ray crystallography. The source holds these as a separate data set.
The data set “crystal structure” deals with the molecule itself. Nature of the data set: crystal structure.

Changes are numbered by the printed parent chain. Numbers in names are those of the source. Like-named read-outs stand apart in the source and are kept apart here.

In the case of TTACAAT (ssDNA) [ssDNA 3'-end AAT], the binding result with RNase T E92G [1] is on record as “binds”.

Consider GGCCCTCTTTAGGGCCTT (structured_DNA) [stem-loop DNA, 2-nt 3'-overhang], for which the binding result with RNase T E92G [2] is “binds”. In the case of TTATAAA (ssDNA) [ssDNA 3'-end AAA], in the data set with RNase T [3], the binding result was “binds”. With TTACACC (ssDNA) [ssDNA 3'-end ACC], the binding result with RNase T [4] is listed as “binds”. As to GCTTA (ssDNA) [ssDNA 3'-end TTA], the binding result with RNase T E92G [1] is given as “binds”. In the case of TTACAAC (ssDNA) [ssDNA 3'-end AAC], the binding result with RNase T [4] was “binds”.

B1: RNase T E92G mutant (E. coli) (enzyme, UniProt P30014 1-215, looked up)
chain: T1 sequence
Take B1: the binding result in the data set “crystal structure” is recorded as “binds”.

B2: RNase T (wild-type, E. coli) (enzyme, UniProt P30014 1-215, looked up)
chain: T1 sequence with G92E
Take B2: in the data set “crystal structure”, the binding result is listed as “binds”.
